Test results: the supplement of paper PMC9732359
± gives the uncertainty stated by the source.

Assay: protein stability index of a GFP-peptide fusion (yeast GPS) (PSI 1-4); higher = more stable; sorted into four equal gates, so the index is relative within each strain
Summary of the method: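 Tiled 17-residue peptides from yeast proteins were fused downstream of GFP on a plasmid that also expresses Cherry, and the pooled library was carried in yeast. Mid-log cultures grown in leucine-free medium were sorted into four equal gates by GFP/Cherry fluorescence ratio. Plasmids from each gate were PCR-amplified and Illumina-sequenced, and reads were assigned to strains by barcodes. Each peptide's protein stability index is the sum, over gates, of the gate's read frequency multiplied by its gate number.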

Sequence | protein stability index (doa10∆) | protein stability index (pdr5∆) | protein stability index (san1∆) | protein stability index (ubr1∆)
MLQKKLVEVEDEKIEAI [SRB7] | 3 ± 0.11 | 3.37 ± 0.1 | 3.16 ± 0.082 | 3.39 ± 0.086
LELAGMDALYEKIWFAI [SIR3] | 1.41 ± 0.095 | 1.53 ± 0.068 | 1.21 ± 0.11 | 1.15 ± 0.052
EDGPRPFKVFLDIGLQR [RPL5] | 3 ± 0.068 | 3.17 ± 0.058 | 3.06 ± 0.052 | 3.04 ± 0.033
RTDATFIRVIGSELVQK [RPT1] | 3.2 ± 0.082 | 3.19 ± 0.057 | 3.04 ± 0.072 | 2.98 ± 0.051
SQKAKLMTFNAETKSYD [YLR335W/NUP2] | 2.55 ± 0.065 | 2.27 ± 0.046 | 2.3 ± 0.057 | 2.92 ± 0.053
EPDRDENWIHVSCLSFM [LIN1] | 3.12 ± 0.051 | 3.07 ± 0.042 | 3.08 ± 0.042 | 3.11 ± 0.036
SVLNPFLLRRVKADVEK [ISW2] | 1.15 ± 0.14 | 1.09 ± 0.068 | 1.18 ± 0.15 | 1.31 ± 0.12
GDNEYITLRTSGELLQG [MCD1] | 3.14 ± 0.13 | 3.11 ± 0.16 | 3.16 ± 0.097 | 3.36 ± 0.096
DNNSKAEASFTFGTKHA [YLR335W/NUP2] | 3.21 ± 0.082 | 3.09 ± 0.076 | 2.93 ± 0.049 | 3.02 ± 0.053
ISAFTQFLRLIFVSILS [ARP9] | 2.17 ± 0.065 | 1.88 ± 0.1 | 2.9 ± 0.12 | 1.22 ± 0.027
TQVFNILLQHKEKLTVQ [POP1] | 3.1 ± 0.084 | 3.11 ± 0.066 | 3.13 ± 0.058 | 2.94 ± 0.036
PFVPVLDRRFEIFFKKD [FAS1] | 2.87 ± 0.059 | 2.98 ± 0.067 | 2.73 ± 0.055 | 2.86 ± 0.057
AQFIVISLRNNMFELAQ [SMC4] | 2.14 ± 0.11 | 1.67 ± 0.082 | 1.51 ± 0.092 | 2.02 ± 0.09
LDPLEVHMLDFPNIAIR [PRP8] | 2.74 ± 0.059 | 2.79 ± 0.056 | 2.84 ± 0.051 | 2.88 ± 0.043
FYQGKTGVVYNVTKSSV [RPL21A] | 2.69 ± 0.11 | 2.58 ± 0.079 | 2.42 ± 0.086 | 2.65 ± 0.071
FMLRKQDPKTLVALLSR [SSN2] | 1.6 ± 0.055 | 1.84 ± 0.041 | 1.85 ± 0.079 | 2.09 ± 0.043
NQYKLVFYQVTPEDADE [RPL22B] | 2.21 ± 0.1 | 2.7 ± 0.082 | 2.34 ± 0.059 | 2.14 ± 0.085
FNRDNKVSPAAAAKKAL [RPS26B] | 2.4 ± 0.12 | 2.5 ± 0.21 | 2.61 ± 0.11 | 2.79 ± 0.12
FLQSVDITGIRDVSDDV [GRR1] | 1.74 ± 0.041 | 2.12 ± 0.045 | 1.89 ± 0.055 | 1.69 ± 0.036
SEISIIDATLKEELLRD [RRP45] | 2.44 ± 0.094 | 2.22 ± 0.1 | 2.3 ± 0.099 | 2.83 ± 0.11
TVHSKSRTRAHAQSKRE [RPL19A] | 3.19 ± 0.074 | 3.07 ± 0.079 | 2.96 ± 0.068 | 3.19 ± 0.069
VFYAELNEFFTRELAEE [RPS3] | 3.16 ± 0.13 | 3.24 ± 0.16 | 3.26 ± 0.09 | 3.28 ± 0.082
NVTGGKAANFIQNQSPQ [SWI1] | 2.77 ± 0.062 | 2.79 ± 0.063 | 2.87 ± 0.051 | 2.99 ± 0.047
PRQRMEEVVSNDEGVWD [PRP8] | 3.45 ± 0.068 | 3.45 ± 0.056 | 2.87 ± 0.06 | 3.06 ± 0.048
SYAVSPYAQKPLQGIFH [QCR8] | 2.51 ± 0.082 | 2.4 ± 0.061 | 2.54 ± 0.054 | 2.6 ± 0.052
VTFSPTGRLFQVEYALE [PRE5] | 3.28 ± 0.099 | 2.77 ± 0.12 | 2.93 ± 0.23 | 2.79 ± 0.062
VIRMVVLTAAGVERLIF [PRE3] | 2.33 ± 0.17 | 2.99 ± 0.13 | 2.42 ± 0.13 | 3.17 ± 0.14

Sequence | protein stability index (doa10∆) | protein stability index (pdr5∆) | protein stability index (san1∆) | protein stability index (ubr1∆)
DAGKLVYVTGGRNLGRI [RPS4A] | 2.76 ± 0.1 | 1.99 ± 0.12 | 3.08 ± 0.17 | 1.89 ± 0.28
VGVIIFILTIATAFLGY [COB] | 2.31 ± 0.07 | 1.84 ± 0.052 | 1.82 ± 0.072 | 2.63 ± 0.039
DVVAHRQLAGAIGYEPL [DIS3] | 2.65 ± 0.074 | 2.43 ± 0.075 | 1.88 ± 0.15 | 2.19 ± 0.11
AKKRKTLILIQNPENLL [SIR3] | 3.04 ± 0.094 | 2.54 ± 0.099 | 3.11 ± 0.092 | 2.78 ± 0.096
IQAGKFDNKSTSEEQEA [SNF2] | 3.28 ± 0.068 | 3.36 ± 0.16 | 2.84 ± 0.17 | 2.94 ± 0.12
GTGKTLLAKAVANQTSA [RPT2] | 1.96 ± 0.085 | 1.95 ± 0.1 | 2.72 ± 0.16 | 1.89 ± 0.092
QFMKRFPMPYENEEFIT [ECM29] | 2.88 ± 0.062 | 2.83 ± 0.094 | 2.85 ± 0.083 | 
THFLLNIYDQLRNKLIE [RRP6] | 2.62 ± 0.044 | 2.69 ± 0.062 | 2.38 ± 0.051 | 2.8 ± 0.033
LEFSALSAADIVAQSEV [RPO31] | 3.01 ± 0.093 | 3.13 ± 0.075 | 3.1 ± 0.071 | 3.17 ± 0.059
EDDNNNVEKPSSKPAFN [YLR335W/NUP2] | 3.12 ± 0.061 | 3.2 ± 0.071 | 3.14 ± 0.049 | 3.2 ± 0.063
TSKWLNSITSGGLKSCD [YDL116W/NUP84] | 2.94 ± 0.097 | 3.17 ± 0.089 | 3.42 ± 0.078 | 2.7 ± 0.052
EQDPYSNASQMGNTGSG [RPB3] | 2.7 ± 0.13 | 2.45 ± 0.14 | 2.21 ± 0.2 | 2.95 ± 0.1
SDKIPYVAPTKKEYIEL [SRB4] | 2.77 ± 0.1 | 2.7 ± 0.1 | 2.32 ± 0.11 | 2.8 ± 0.12
YLEENKSDSQYRFYEYI [MED1] | 3.04 ± 0.063 | 3.06 ± 0.062 | 3.12 ± 0.069 | 3.13 ± 0.086
EFEIPVSFNGFKLPKKF [BRR2] | 2.58 ± 0.1 | 2.94 ± 0.12 | 2.61 ± 0.12 | 2.91 ± 0.094
REEAIGFIRGSNKFAEV [SMC3] | 3.01 ± 0.093 | 2.94 ± 0.074 | 2.95 ± 0.094 | 2.67 ± 0.08
LQRPTATDEESVRLQRF [CSN12] | 2.75 ± 0.089 | 2.98 ± 0.12 | 2.97 ± 0.1 | 3.16 ± 0.1
QVARTNLDGTKAVKLRK [ROX3] | 3.03 ± 0.07 | 3.13 ± 0.063 | 2.98 ± 0.051 | 3.15 ± 0.058
GWFHSHPGYDCWLSNID [RRI1] | 2.85 ± 0.075 | 3.05 ± 0.054 | 2.77 ± 0.074 | 2.81 ± 0.071
MMEEIINVVIKASRKSV [ECM29] | 1.76 ± 0.073 | 1.75 ± 0.068 | 2.04 ± 0.21 | 1.53 ± 0.12
ENITNKVTEKVLTQLTA [CSI1] | 2.62 ± 0.051 | 2.22 ± 0.037 | 2.4 ± 0.041 | 2.69 ± 0.041
AEHSQNKIDQSLQYIER [YJL041W/NSP1] | 3.17 ± 0.069 | 3.16 ± 0.043 | 3.21 ± 0.049 | 3.04 ± 0.048
DPNLSFESSSSLPFLLR [SSN2] | 3.07 ± 0.16 | 3.19 ± 0.13 | 2.94 ± 0.1 | 2.82 ± 0.13
GNYSHLMEKNRIRKLTG [REC8] | 1.58 ± 0.067 | 2.04 ± 0.061 | 2.56 ± 0.1 | 1.9 ± 0.062
QGDVEQIAAQSPVELSR [SMC1] | 2.66 ± 0.087 | 2.92 ± 0.067 | 3.08 ± 0.063 | 2.83 ± 0.073
ELNDLKWGRNQPVNINL [YMR129W/POM152] | 2.8 ± 0.1 | 2.72 ± 0.086 | 2.83 ± 0.11 | 2.56 ± 0.068
